Reference: US20220073641A1, “FUSION PROTEIN OF ANTIBODY THAT RECOGNIZES CANCER CELLS AND MUTANT STREPTAVIDIN” (The University of Tokyo, priority 2018, published 2022)
One block for each molecule: values may come before it.

How the values were obtained:
[1] = system: MKN45 cells; test: In vivo cytotoxicity test in MKN45 xenograft mouse models with 690 nm light; parameters: species or system nude mice; settings: 100 μg complex of CEA-V2122 and Compound 1 via caudal vein; 690 nm 230 J/cm^2 at 6 and 24 hours; pathology on 7th day; FIG. 11, 12
Excerpt: MKN45 cells were subcutaneously transplanted into nude mice to produce xenograft mouse models. That is, 4-week-old female nude mice were purchased, and the mice were then acclimated for 1 week. Thereafter, the MKN45 cells were transplanted in a cell count of 2×10^5 cells per mouse into the subcutis thereof. […] Using an LED light source emitting a light having a wavelength of 690 nm (USHIO OPTO SEMICONDUCTORS, INC., LD690D-66-60-550.), T-Cube LED Driver (THORLABS, NC0713145), and T-CUBE 15V POWER SUPPLY (THORLABS, TPS001), 6 hours after the administration, the mice were irradiated with the light having a wavelength of 690 nm, so that the irradiation energy became 230 J/cm^2. Twenty-four hours after administration of the complex, the mice were irradiated again with the light having a wavelength of 690 nm, so that the irradiation energy became 230 J/cm^2. Individual mice were euthanized on the 7th day after administration of the complex and were then excised, and the tumor portions were subjected to pathological analysis. The specific method is as follows. That is, the subcutaneous tumor of each mouse and the peripheral tissues thereof were excised as a mass, and the mass was then immersed in a 4% paraformaldehyde solution (Wako Pure Chemical Industries, Ltd., 163-20145) at mom temperature overnight, so that the tissues were fixed. […]

[2] = system: MKN45 cells; test: Cytotoxicity test using CEA-V2122 and photoactivatable compound-labeled modified biotins with 690 nm light; settings: complex with CEA-V2122 (molar ratio 1:2), 0.039-10 μg/mL, 690±10 nm 100 J/cm^2, 48 hours, Cell Counting Kit-8; FIG. 8
Experimental: Specifically, MKN45 cells were seeded on a 96-well plate for cell culture, so that the cell count became 5×10^3 cells/well and the amount of the culture solution became 50 μL/well, and thereafter, the cells were cultured overnight. […] Regarding serial dilutions, 20 μg/mL was set to be an initial concentration, from 4-fold serial dilutions (5.0 μg/mL, 1.25 μg/mL, 0.312 μg/mL, and 0.078 μg/mL), 5 complex serial dilution solutions were prepared. Besides, a medium alone that contained no complex was used as a zero control.
Such complex serial dilution solutions were each added in an amount of 50 μL/well to the cells cultured overnight, so that the final concentrations became 10 μg/mL, 2.5 μg/mL, 0.625 μg/mL, 0.156 μg/mL, and 0.039 μg/mL One hour and two hours after addition of the complex, the cells were irradiated with a light, using LED emitting a light having a wavelength of 690±10 nm, so that the irradiation energy became 100 J/cm^2. […] Each condition was set to be n=3. The dosage and administration were determined in accordance with the instruction manuals included with the kit, and after addition of the reagent, the mixture was incubated for 1.5 hours at 37° C., in a CO2 incubator. Thereafter, the absorbance at 450 nm was measured, and the mean value was then calculated, followed by background collection. […]

[3] = biological target: T1, Recombinant Human CEACAM-5/CD66e Protein, CF (R & D SYSTEMS) (human, UniProt P06731 35-685); test: SPR (Biacore T200), CEACAM5 immobilized on CM5, CEA-V2122 as analyte, single-cycle kinetics, bivalent analysis fit
T1 construct: Purchased protein, amine-coupled to a CM5 chip; also called antigen CEACAM5
T1 sequence (looked up): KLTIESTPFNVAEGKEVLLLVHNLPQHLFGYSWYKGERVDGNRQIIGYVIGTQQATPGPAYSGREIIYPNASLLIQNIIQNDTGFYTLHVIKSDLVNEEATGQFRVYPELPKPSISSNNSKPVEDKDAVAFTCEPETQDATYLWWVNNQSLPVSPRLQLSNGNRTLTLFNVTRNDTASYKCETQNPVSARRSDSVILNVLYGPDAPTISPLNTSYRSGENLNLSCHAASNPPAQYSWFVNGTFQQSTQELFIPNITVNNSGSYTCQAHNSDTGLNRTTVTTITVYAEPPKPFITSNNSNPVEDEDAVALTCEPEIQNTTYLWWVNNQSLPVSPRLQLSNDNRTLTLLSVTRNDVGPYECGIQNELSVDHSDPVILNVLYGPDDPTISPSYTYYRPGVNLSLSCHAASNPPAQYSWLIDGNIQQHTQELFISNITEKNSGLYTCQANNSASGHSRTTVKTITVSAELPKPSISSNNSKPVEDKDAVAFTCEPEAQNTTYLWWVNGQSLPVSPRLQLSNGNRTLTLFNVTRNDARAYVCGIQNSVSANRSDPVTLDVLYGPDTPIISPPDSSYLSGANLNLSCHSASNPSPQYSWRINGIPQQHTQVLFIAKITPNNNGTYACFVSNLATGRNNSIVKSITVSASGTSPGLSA

[4] = biological target: T2, CEACAM5 (Homo sapiens, UniProt P06731); test: Cell staining of CEACAM5-expressing cell line using FITC-labeled CEA-V2122; format: cell-based
T2 sequence (P06731 35-676): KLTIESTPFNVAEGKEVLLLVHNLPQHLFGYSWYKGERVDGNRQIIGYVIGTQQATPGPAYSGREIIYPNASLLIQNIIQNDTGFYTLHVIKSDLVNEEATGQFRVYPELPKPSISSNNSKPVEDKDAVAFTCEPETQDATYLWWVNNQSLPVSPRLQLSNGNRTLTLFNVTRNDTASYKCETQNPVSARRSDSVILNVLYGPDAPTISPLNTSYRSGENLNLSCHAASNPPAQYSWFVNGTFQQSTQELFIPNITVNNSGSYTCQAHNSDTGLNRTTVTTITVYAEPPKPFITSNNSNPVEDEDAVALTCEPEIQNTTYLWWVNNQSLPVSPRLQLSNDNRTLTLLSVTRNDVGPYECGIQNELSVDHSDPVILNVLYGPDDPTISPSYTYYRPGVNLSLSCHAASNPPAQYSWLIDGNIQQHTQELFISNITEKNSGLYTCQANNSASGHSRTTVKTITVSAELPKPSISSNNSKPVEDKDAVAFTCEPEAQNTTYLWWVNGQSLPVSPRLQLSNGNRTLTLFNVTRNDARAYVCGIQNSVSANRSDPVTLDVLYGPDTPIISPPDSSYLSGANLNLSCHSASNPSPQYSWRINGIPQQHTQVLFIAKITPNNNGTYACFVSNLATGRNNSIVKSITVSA
Experimental: In order to stain a CEACAM5 expression-positive cancer cell line, FTC labeling was carried out on the cell line, using 100 μg of a purified CEA-V2122 protein. Specifically, labeling was carried out using Fluorescein Labeling Kit—NH2 (DOJINDO LABORATORIES) in accordance with the dosage and administration described in the operating manual included with the kit, and the obtained product was defined to be CEA-V2122-FITC. Specific staining of the CEACAM5 expression-positive cancer cell line is as follows. That is, CEACAM5-positive human stomach cancer-derived MKN-45 cells and CEACAM5-negative human colon cancer-derived DLD1 cells were each seeded on a CELLSTAR, μClear, 96-well plate (Greiner) to a cell density of 2.0×10^4 cells/well, and thereafter, the cells were cultured overnight. Subsequently, a culture solution containing 20 nM CEA-V2122-FITC and 1 μM Hoechist was added to the 96-well plate to a concentration of 100 μL/well, and the obtained mixture was then reacted at 4° C. for 30 minutes. Thereafter, each image was taken using In Cell Analyzer 6000 (GE Healthcare Life Sciences).

[5] = SPR (Biacore T200) interaction between immobilized CEA-V2122 and a modified biotin; format: binding
Experimental: Furthermore, the interaction between CEA-V2122 and a modified biotin was also analyzed using Biacore T200. The modified biotin was specifically the title compound 14 described in Example 1 of International Publication WO2018/07239. In addition, the analysis method was specifically as follows. That is, an amine-coupling kit was used, a target value was set to be 5000 RU, and the purified CEA-V2122 was immobilized on Sensor Chip CM5.

[6] = biological target: T2, CEACAM5; test: SPR (Biacore T200) affinity of CEA-V2122 for immobilized antigen CEACAM5; format: binding; parameters: purchased R & D SYSTEMS
[7] = single-cycle kinetics, bivalent analysis mode, CEA-V2122 immobilized, modified biotin analyte
[8] = single-cycle kinetics, bivalent analysis mode, CEACAM5 immobilized, CEA-V2122 analyte

- Kd [3]: 1.08 pM
B1: CEA-V2122 (scFv)
chain: QVKLEQSGAEVVKPGASVKLSCKASGFNIKDSYMHWLRQGPGQRLEWIGWIDPENGDTEYAPKFQGKATFTTDTSANTAYLGLSSLRPEDTAVYYCNEGTPTGPYYFDYWGQGTLVTVSSGGGGSGGGGSGGGGSENVLTQSPSSMSVSVGDRVNIACSASSSVPYMHWLQQKPGKSPKLLIYLTSNLASGVPSRFSGSGSGTDYSLTISSVQPEDAATYYCQQRSSYPLTFGGGTKLEIKGGGGSGGGGAEAGITGTWSDQLGDTFIVTAGADGALTGTYENAVGGAESRYVLTGRYDSAPATDGSGTALGWTVAWKNNSKNAHSATTWSGQYVGGADAKINTQWLLTSGTTNANAWKSTLVGHDTFTKVKPSAASHHHHHH
notes: also called CEA-Cupid; scFv-V2122

- binding to a modified biotin ([5]; from the KD value in the sensorgram, FIG. 4): strongly binds to a modified biotin
- KD=kd1/ka1 ([6]; bivalent analysis mode): 1.078E−12
- binding to CEACAM5 ([6]; from the KD value in the sensorgram, FIG. 3): strongly binds to CEACAM5
- ka1 [6, 8]: 3.208E+5
- kd1 [6, 8]: 3.461E−7
B3: CEA-V2122: scFv-type anti-CEACAM5 antibody bound with mutant streptavidin V2122 via linker GGGGSGGGG; SEQ ID NO: 3 (protein)
chain: B1 chain
- ka1 [5, 7]: 3.792E+4
- kd1 [5, 7]: 4.424E−6

More lines, now with the values behind:

Molecule: C[Si](C)(CCC[N+](CCCS(=O)(=O)[O-])(CCCS(=O)(=O)O)CCCS(=O)(=O)O)O[Si]1(O[Si](C)(C)CCC[N+](CCCS(=O)(=O)[O-])(CCCS(=O)(=O)O)CCCS(=O)(=O)O)N2/C3=N\C4=NC(=N\c5c6c(OCCCOC(=O)NCCCCCC(=O)NCCOCCOCCN(CC(=O)NCCCCNC(=O)CCCC[C@@H]7SC[C@@H]8NC(=N)N[C@@H]87)CC(=O)NCCCCNC(=O)CCCC[C@@H]7SC[C@@H]8NC(=N)N[C@@H]87)cccc6c(n51)/N=C1\N=C(NC2c2ccccc23)c2ccccc21)/c1ccccc14 (stereo partly drawn) [Compound 1]
- tumor necrosis [1]: necrosis can be induced to the tumor of the xenograft mouse model
- cytotoxicity [2]: exhibits cytotoxicity in a concentration-dependent manner

B2: CEA-V2122-FITC: purified CEA-V2122 protein labeled with Fluorescein Labeling Kit—NH2 (protein)
chain: B1 chain
- recognition of CEACAM5 on cells ([4]; 20 nM, 4° C., 30 minutes, CEACAM5-positive MKN-45 vs CEACAM5-negative DLD1 cells, FIG. 5): specifically recognizes CEACAM5 on the surface of the cell membrane
- localisation of CEACAM5 after binding ([4]; MKN45 cells, time series, FIG. 6): the CEACAM5 stays on the surface of the cell membrane
